Measurements as given in paper PMC8571072.
Values joined by “and” are separate entries in the source; they are usually repeats but may differ in a detail not shown here. Equal values may be shown once.

Biological target: intelectin-2 (Xenopus laevis (endogenous in egg extract))
Assay: cryo-EM structure

intelectin-2 (natural protein) was tested. Which stoichiometry N did it give?
Its stoichiometry N is 3 and 6.
